B1: HC010-F7 (trispecific antibody, human IgG4 S228P, kappa)
heavy: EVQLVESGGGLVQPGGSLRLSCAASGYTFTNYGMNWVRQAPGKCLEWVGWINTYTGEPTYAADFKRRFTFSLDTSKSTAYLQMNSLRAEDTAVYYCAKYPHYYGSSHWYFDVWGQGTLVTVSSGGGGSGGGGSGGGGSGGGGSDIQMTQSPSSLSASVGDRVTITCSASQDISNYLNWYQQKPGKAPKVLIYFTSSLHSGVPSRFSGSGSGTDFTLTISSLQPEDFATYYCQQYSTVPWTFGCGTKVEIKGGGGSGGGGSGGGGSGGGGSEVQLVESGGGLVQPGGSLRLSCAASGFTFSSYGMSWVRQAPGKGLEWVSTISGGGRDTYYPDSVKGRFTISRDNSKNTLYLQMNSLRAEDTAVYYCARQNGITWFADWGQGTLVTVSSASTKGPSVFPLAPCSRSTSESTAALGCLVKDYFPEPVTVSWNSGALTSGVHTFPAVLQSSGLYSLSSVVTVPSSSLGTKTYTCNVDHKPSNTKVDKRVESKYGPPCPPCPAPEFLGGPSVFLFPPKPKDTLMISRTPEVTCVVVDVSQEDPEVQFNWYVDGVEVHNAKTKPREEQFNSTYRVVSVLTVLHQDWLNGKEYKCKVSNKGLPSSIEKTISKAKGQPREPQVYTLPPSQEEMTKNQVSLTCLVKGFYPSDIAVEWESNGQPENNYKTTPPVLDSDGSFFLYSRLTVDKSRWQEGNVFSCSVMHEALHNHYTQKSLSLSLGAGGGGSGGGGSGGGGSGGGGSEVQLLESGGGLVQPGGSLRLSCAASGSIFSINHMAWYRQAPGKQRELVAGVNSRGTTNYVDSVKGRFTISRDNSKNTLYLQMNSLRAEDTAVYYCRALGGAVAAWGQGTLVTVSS
light: DIQMTQSPSSLSASVGDRVTITCRASESVDNYGISFMNWYQQKPGKAPKLLIYAASNQGSGVPSRFSGSGSGTDFTLTISSLQPEDFATYYCQQSKEVPWTFGGGTKVEIKRTVAAPSVFIFPPSDEQLKSGTASVVCLLNNFYPREAKVQWKVDNALQSGNSQESVTEQDSKDSTYSLSSTLTLSKADYEKHKVYACEVTHQGLSSPVTKSFNRGEC
notes: light: CQ1-3/1-11 VL-kappa; also called H010-F7
B2: HC010-F13 (trispecific antibody, human IgG4 S228P, kappa)
heavy 1: EVQLVESGGGLVQPGGSLRLSCAASGFTFSSYGMSWVRQAPGKGLEWVSTISGGGRDTYYPDSVKGRFTISRDNSKNTLYLQMNSLRAEDTAVYYCARQNGITWFADWGQGTLVTVSSASTKGPSVFPLAPCSRSTSESTAALGCLVKDYFPEPVTVSWNSGALTSGVHTFPAVLQSSGLYSLSSVVTVPSSSLGTKTYTCNVDHKPSNTKVDKRVESKYGPPCPPCPAPEFLGGPSVFLFPPKPKDTLMISRTPEVTCVVVDVSQEDPEVQFNWYVDGVEVHNAKTKPREEQFNSTYRVVSVLTVLHQDWLNGKEYKCKVSNKGLPSSIEKTISKAKGQPREPQVYTLPPCQEEMTKNQVSLWCLVKGFYPSDIAVEWESNGQPENNYKTTPPVLDSDGSFFLYSRLTVDKSRWQEGNVFSCSVMHEALHNHYTQKSLSLSLGAGGGGSGGGGSGGGGSGGGGSEVQLVESGGGLVQPGGSLRLSCAASGYTFTNYGMNWVRQAPGKCLEWVGWINTYTGEPTYAADFKRRFTFSLDTSKSTAYLQMNSLRAEDTAVYYCAKYPHYYGSSHWYFDVWGQGTLVTVSSGGGGSGGGGSGGGGSGGGGSDIQMTQSPSSLSASVGDRVTITCSASQDISNYLNWYQQKPGKAPKVLIYFTSSLHSGVPSRFSGSGSGTDFTLTISSLQPEDFATYYCQQYSTVPWTFGCGTKVEIK
heavy 2: EVQLLESGGGLVQPGGSLRLSCAASGSIFSINHMAWYRQAPGKQRELVAGVNSRGTTNYVDSVKGRFTISRDNSKNTLYLQMNSLRAEDTAVYYCRALGGAVAAWGQGTLVTVSSGGGGSGGGGSGGGGSGGGGSESKYGPPCPPCPAPEFLGGPSVFLFPPKPKDTLMISRTPEVTCVVVDVSQEDPEVQFNWYVDGVEVHNAKTKPREEQFNSTYRVVSVLTVLHQDWLNGKEYKCKVSNKGLPSSIEKTISKAKGQPREPQVCTLPPSQEEMTKNQVSLSCAVKGFYPSDIAVEWESNGQPENNYKTTPPVLDSDGSFFLVSRLTVDKSRWQEGNVFSCSVMHEALHNRFTQKSLSLSLGAGGGGSGGGGSGGGGSGGGGSEVQLVESGGGLVQPGGSLRLSCAASGYTFTNYGMNWVRQAPGKCLEWVGWINTYTGEPTYAADFKRRFTFSLDTSKSTAYLQMNSLRAEDTAVYYCAKYPHYYGSSHWYFDVWGQGTLVTVSSGGGGSGGGGSGGGGSGGGGSDIQMTQSPSSLSASVGDRVTITCSASQDISNYLNWYQQKPGKAPKVLIYFTSSLHSGVPSRFSGSGSGTDFTLTISSLQPEDFATYYCQQYSTVPWTFGCGTKVEIK
light: B1 light
notes: Knob-into-hole heterodimer; light: CQ1-3/1-11 VL-kappa; One site each for PD-1 and CTLA-4; also called H010-F13
B3: HC010-F11 (trispecific antibody, human IgG4 S228P, kappa)
heavy: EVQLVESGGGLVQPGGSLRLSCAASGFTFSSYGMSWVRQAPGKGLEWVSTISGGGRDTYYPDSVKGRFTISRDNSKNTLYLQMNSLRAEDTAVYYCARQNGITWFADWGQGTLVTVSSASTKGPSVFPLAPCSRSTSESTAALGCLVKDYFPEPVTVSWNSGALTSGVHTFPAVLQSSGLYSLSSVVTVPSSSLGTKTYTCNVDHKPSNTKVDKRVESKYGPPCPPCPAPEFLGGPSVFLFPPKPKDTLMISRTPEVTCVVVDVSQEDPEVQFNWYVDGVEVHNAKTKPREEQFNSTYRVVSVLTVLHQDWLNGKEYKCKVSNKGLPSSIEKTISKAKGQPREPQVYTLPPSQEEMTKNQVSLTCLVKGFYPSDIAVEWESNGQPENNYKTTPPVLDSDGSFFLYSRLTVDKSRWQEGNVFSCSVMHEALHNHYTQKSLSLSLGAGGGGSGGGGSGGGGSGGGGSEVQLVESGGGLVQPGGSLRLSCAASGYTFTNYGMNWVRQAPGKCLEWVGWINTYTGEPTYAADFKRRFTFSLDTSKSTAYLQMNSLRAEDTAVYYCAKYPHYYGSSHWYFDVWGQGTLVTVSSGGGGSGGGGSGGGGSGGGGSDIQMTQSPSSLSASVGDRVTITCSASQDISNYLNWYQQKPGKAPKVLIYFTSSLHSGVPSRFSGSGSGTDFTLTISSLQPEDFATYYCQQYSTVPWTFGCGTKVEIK
light: DIQMTQSPSSLSASVGDRVTITCRASESVDNYGISFMNWYQQKPGKAPKLLIYAASNQGSGVPSRFSGSGSGTDFTLTISSLQPEDFATYYCQQSKEVPWTFGGGTKVEIKRTVAAPSVFIFPPSDEQLKSGTASVVCLLNNFYPREAKVQWKVDNALQSGNSQESVTEQDSKDSTYSLSSTLTLSKADYEKHKVYACEVTHQGLSSPVTKSFNRGECGGGGSGGGGSGGGGSGGGGSEVQLLESGGGLVQPGGSLRLSCAASGSIFSINHMAWYRQAPGKQRELVAGVNSRGTTNYVDSVKGRFTISRDNSKNTLYLQMNSLRAEDTAVYYCRALGGAVAAWGQGTLVTVSS
notes: light: CQ1-3/1-11 VL-kappa - (G4S)4 - 202F1 VHH; also called H010-F11
B4: HC010-F15 (trispecific antibody, human IgG4 S228P, kappa)
heavy 1: QVQLVESGGGVVQPGRSLRLSCAASGFTFSSYTMHWVRQAPGKGLEWVTFISYDGNNKYYADSVKGRFTISRDNSKNTLYLQMNSLRAEDTAIYYCARTGWLGPFDYWGQGTLVTVSSASTKGPSVFPLAPCSRSTSESTAALGCLVKDYFPEPVTVSWNSGALTSGVHTFPAVLQSSGLYSLSSVVTVPSSSLGTKTYTCNVDHKPSNTKVDKRVESKYGPPCPPCPAPEFLGGPSVFLFPPKPKDTLMISRTPEVTCVVVDVSQEDPEVQFNWYVDGVEVHNAKTKPREEQFNSTYRVVSVLTVLHQDWLNGKEYKCKVSNKGLPSSIEKTISKAKGQPREPQVYTLPPCQEEMTKNQVSLWCLVKGFYPSDIAVEWESNGQPENNYKTTPPVLDSDGSFFLYSRLTVDKSRWQEGNVFSCSVMHEALHNHYTQKSLSLSLGAGGGGSGGGGSGGGGSGGGGSEVQLVESGGGLVQPGGSLRLSCAASGYTFTNYGMNWVRQAPGKCLEWVGWINTYTGEPTYAADFKRRFTFSLDTSKSTAYLQMNSLRAEDTAVYYCAKYPHYYGSSHWYFDVWGQGTLVTVSSGGGGSGGGGSGGGGSGGGGSDIQMTQSPSSLSASVGDRVTITCSASQDISNYLNWYQQKPGKAPKVLIYFTSSLHSGVPSRFSGSGSGTDFTLTISSLQPEDFATYYCQQYSTVPWTFGCGTKVEIK
heavy 2: EVQLVESGGGLVQPGGSLRLSCAASGFTFSSYGMSWVRQAPGKCLEWVSTISGGGRDTYYPDSVKGRFTISRDNSKNTLYLQMNSLRAEDTAVYYCARQNGITWFADWGQGTLVTVSSGGGGSGGGGSGGGGSGGGGSDIQMTQSPSSLSASVGDRVTITCRASESVDNYGISFMNWYQQKPGKAPKLLIYAASNQGSGVPSRFSGSGSGTDFTLTISSLQPEDFATYYCQQSKEVPWTFGCGTKVEIKGGGGSGGGGSGGGGSGGGGSESKYGPPCPPCPAPEFLGGPSVFLFPPKPKDTLMISRTPEVTCVVVDVSQEDPEVQFNWYVDGVEVHNAKTKPREEQFNSTYRVVSVLTVLHQDWLNGKEYKCKVSNKGLPSSIEKTISKAKGQPREPQVCTLPPSQEEMTKNQVSLSCAVKGFYPSDIAVEWESNGQPENNYKTTPPVLDSDGSFFLVSRLTVDKSRWQEGNVFSCSVMHEALHNRFTQKSLSLSLGAGGGGSGGGGSGGGGSGGGGSEVQLVESGGGLVQPGGSLRLSCAASGYTFTNYGMNWVRQAPGKCLEWVGWINTYTGEPTYAADFKRRFTFSLDTSKSTAYLQMNSLRAEDTAVYYCAKYPHYYGSSHWYFDVWGQGTLVTVSSGGGGSGGGGSGGGGSGGGGSDIQMTQSPSSLSASVGDRVTITCSASQDISNYLNWYQQKPGKAPKVLIYFTSSLHSGVPSRFSGSGSGTDFTLTISSLQPEDFATYYCQQYSTVPWTFGCGTKVEIK
light: not shown
notes: Knob-into-hole heterodimer; light: ipilimumab VL-kappa; also called H010-F15

T4 sequence (P16410 36-223): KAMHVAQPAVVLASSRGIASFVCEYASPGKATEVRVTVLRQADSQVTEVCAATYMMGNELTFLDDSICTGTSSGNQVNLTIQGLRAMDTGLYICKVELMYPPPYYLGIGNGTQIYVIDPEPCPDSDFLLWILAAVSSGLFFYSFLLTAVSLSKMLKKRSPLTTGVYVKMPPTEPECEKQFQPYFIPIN
T3 sequence (P15692 other isoform, or with tags, fused parts or gaps limits assumed): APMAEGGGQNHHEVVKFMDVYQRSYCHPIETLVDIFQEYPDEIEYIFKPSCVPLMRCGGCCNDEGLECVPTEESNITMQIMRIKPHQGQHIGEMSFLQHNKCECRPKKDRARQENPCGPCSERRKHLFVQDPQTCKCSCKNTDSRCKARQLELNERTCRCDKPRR
T5 sequence (P16410 36-161 limits assumed): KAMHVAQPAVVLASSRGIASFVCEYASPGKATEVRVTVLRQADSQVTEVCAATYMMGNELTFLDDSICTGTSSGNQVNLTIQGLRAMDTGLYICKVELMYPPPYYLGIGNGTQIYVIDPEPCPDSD

The target in one test is T1, human PD-1 protein (Acro, Catalog No. PD1-H5221) (human, UniProt Q15116 25-167).
T1 construct: Bought protein; also called human PD1-his; not shown: his tag
T1 sequence (Q15116 25-167 limits assumed): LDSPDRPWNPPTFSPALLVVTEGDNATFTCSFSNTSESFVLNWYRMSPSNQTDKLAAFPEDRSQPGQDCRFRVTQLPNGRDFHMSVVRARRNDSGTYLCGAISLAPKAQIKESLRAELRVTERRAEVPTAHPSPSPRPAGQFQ
The test is described as follows: ELISA, plate coated with human PD-1 protein. The procedure: (§1) ELISA was used to determine the activity of the trispecific antibodies binding to the PD-1 protein: 1 μg/mL human PD-1 protein (Acro, Catalog No.: PD1-H5221) was used to coat a high-adsorption 96-well ELISA plate and incubated at 4° C. overnight. On the next day, the plate was washed three times with PBST solution and blocked with 1% BSA-PBS solution at 37° C. for 1 hour. At the same time, 3-fold gradient dilutions of the antibody were prepared with 1% BSA-PBS solution, with a starting concentration of 10 nM. The antibodies of each gradient concentration were added to the blocked 96-well ELISA plate at 100 µL/well in triplicate and incubated at 37° C. for 1 hour. The plate was then washed three times with 0.05% PBST solution, and 100 μL/well of HRP-labeled secondary antibody (Sigma, Catalog No.: A0170) diluted at 1:5000 was added to the ELISA plate and incubated at 37° C. for 1 hour. The plate was washed three times with 0.05% PBST solution and developed with TMB. The absorbance of the 96-well ELISA plate at 450 nm was detected by an ELISA reader. The OD₄₅₀ value was fitted using a four-parameter model to calculate the EC₅₀ value of each antibody binding to PD-1.
On to B1, for which a half-maximal response (EC50) required 0.085 nM. This lies in the picomolar range.
Still for that read-out and setting: then B2, with 0.307 nM; and B3, with 0.114 nM.
For the molecule B4, the EC50 (commonly the concentration that produces a half-maximal response) stood at 0.712 nM.

In another test the target is T2, human PD-1 on the cell surface (human, UniProt Q15116 25-288).
T2 construct: whole, on cells; also called cell surface PD-1
T2 sequence (Q15116 25-288): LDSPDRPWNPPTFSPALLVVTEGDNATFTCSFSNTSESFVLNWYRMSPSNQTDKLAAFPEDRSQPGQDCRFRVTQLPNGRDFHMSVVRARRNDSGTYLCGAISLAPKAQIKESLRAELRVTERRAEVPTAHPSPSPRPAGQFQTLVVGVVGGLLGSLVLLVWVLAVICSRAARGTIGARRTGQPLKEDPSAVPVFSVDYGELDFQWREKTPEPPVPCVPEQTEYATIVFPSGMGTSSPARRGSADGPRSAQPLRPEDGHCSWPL
Description: flow cytometry competition, 293T-hPD-1 cells, biotin-human PD-L1. The procedure: 50 μL of antibody solution serially diluted 3-fold in FACS buffer was added in triplicate, with a starting concentration of 200 nM. After mixing, incubated at 4° C. for 60 minutes. After washing three times with FACS buffer, 100 μL/well of 1:800 diluted PE Streptavidin was added and incubated at 4° C. for 50 min. After washing three times with FACS buffer, 150 μL/well of PBS was added to resuspend the cells, and the fluorescence signal was detected on a flow cytometer (BECKMAN COULTER cytoFLEX). The four-parameter model was used to fit the binding activity and the IC₅₀ value of the blocking activity of each antibody was calculated.
(In flow cytometry, cells or beads pass a laser one at a time.)
Turning to B1, the IC50 (commonly the midpoint of a concentration-inhibition curve) was determined as 3.7 nM.
Molecule B2 had an IC50 of 69.9 nM.
The same measure, in the same setting: then B3, with 5.58 nM.
Same read-out and setting: next, B4: 326 nM.

The next test concerns the target T3, human VEGF165-his protein (Acro, Catalog No. VE5-H5248) (human, UniProt P15692-4 27-191).
T3 construct: Bought protein; also called hVEGF165-His; VEGFA; not shown: his tag
Description: ELISA, plate coated with human VEGF165-his. The procedure: as §1
The binding activity of the trispecific antibodies to VEGFA protein was detected by ELISA method as described in Section 2.1. The used human VEGF165-his protein was purchased from Acro, Catalog No.: VE5-H5248.
(In an ELISA, binding on a coated surface is turned into a signal by an enzyme label.)
The molecule B1 showed an EC50 of 0.081 nM. That is a picomolar value.
Same read-out and setting: next, B2: 0.098 nM; B3: 0.125 nM.
Same read-out and setting: next, B4: 0.087 nM.

Another test deals with human PD-1 protein (Acro, PD1-H5257) (human, UniProt Q15116 25-167). Description: competitive ELISA, PD-1 coated, biotin-PD-L1 as labelled ligand. As for the experimental part: The next day, the plate was washed three times with PBS solution and blocked with 1% BSA-PBS solution at 37° C. for 1 hour. […] 100 μL of the antibody-protein mixture was added to each well of the blocked 96-well ELISA plate and incubated at 37° C. for 1 hour. After washing four times with PBST, 100 μL of Strep-HRP (BD, Catalog No. 554066) diluted 1:5000 was added to each well of the ELISA plate and incubated at 37° C. for 1 hour. After washing 4 times with PBST, TMB was used for color development. The absorbance at 450 nm and 630 nm was detected by a microplate reader, and OD450-OD630 was calculated. The fluorescence intensity was fitted using a four-parameter model, and the IC₅₀ value of the blocking activity of each antibody was calculated.
human PD-1 protein (Acro, PD1-H5257), sequence (Q15116 25-167 limits assumed): as the sequence (Q15116 25-167 limits assumed) above
B1 showed an IC50 of 0.433 nM.
As to B2, the half-maximal inhibitory concentration (IC50) was 1.63 nM.
Molecule B3 registered an IC50 of 0.83 nM. Compared with the last molecule, the IC50 is about 2-fold lower.
Turning to B4, the IC50 turned out to be 2.22 nM. Against the preceding molecule, the IC50 is about 2.7-fold higher.

Another test has as its target T4, human CTLA-4 on the cell surface (human, UniProt P16410 36-223).
T4 construct: whole, on cells; also called CHO-hCTLA-4 cells; CHOK1-hCTLA4 cells
The test is described as follows: flow cytometry competition, 293T-hPD-1-hCTLA-4 cells (PD-1 co-expressed), biotin-human CD80. The procedure:
PD-1 and CTLA-4 are co-expressed on functionally exhausted T cells in the tumor microenvironment, and the expression level of PD-1 is higher than that of CTLA-4. […] 200 μL of the cells were added to a 96-well U-bottom plate, approximately 1.4×10⁵ cells/well. After centrifugation at 300 g for 5 minutes, the supernatant was discarded. […] After washing three times with FACS buffer, 100 μL/well of 1:800 diluted PE Streptavidin was added and incubated at 4° C. for 50 min. After washing three times with FACS buffer, 150 μL/well of PBS was added to resuspend the cells, and the fluorescence signal was detected on a flow cytometer (BECKMAN COULTER cytoFLEX). The binding activity was fitted using a four-parameter model, and the IC₅₀ value of the blocking activity of each antibody was calculated.
B1 displayed an IC50 of 0.055 nM.
Still for that read-out and setting: next, B2: 0.066 nM; B3: 0.076 nM.

A further test has as its target T5, human CTLA-4 protein (Acro, Catalog No. CT4-H52H9) (human, UniProt P16410 36-161).
T5 construct: Bought protein
The test is described as follows: ELISA, plate coated with human CTLA-4 protein.
B1 registered an EC50 of 0.059 nM.
Same read-out and setting: next, B2: 0.438 nM; B3: 0.044 nM.

Source of the values: patent publication US20260116960A1 (SHANGHAI HONGCHENG BIOPHARMACEUTICAL, published 2026).
